Source: a protein production outcome set (Wang et al. 2014)

assay: label from the status in PepcDB records

Sequence | protein production
MNLETKPIAETPNFIVLDQYEKIEQSGSYQSENRLEAELIADLQNQGYEYRKDLNSQSRLLENLRAQLQRLNDVAFSDGEWARFLTEYLDRPAENITDKTRKIHDDHIYDFAFDDGRLKNIYLLDKKNLARNHVQLINQFEQTGTHANRYDVTVLVNGLPLVQIELKKRGVAVREAFNQVHRYSKESFNSGNSLFKFLQIFVISNGTDTRYFANTTKRDKNSFDFTMNWARSDNHPIKDLKDFTATFLQKSVLLSVLLHYSVFDANDTLLIMRPYQIAAAERILWKINSSAQAKNWSGPESGGYVWHTTGSGKTLTGFKAARLATESAFIDKVFFVVDRKDLDYQTMKEYQRFSPDSVNGSESTAGLKRNLEKDGNKIIVTTIQKLNNLMKSEDNLPVYHRQVVFIFDECHRSQFGEAQKNLKKKFKKFCQFGFTGTPIFPENALGAETTAGVFGRELHSYVITDAIRDEKVLKFKVDYNDVRPQFKAVEAEQDEKELSAAENRQALLHPERIREITQYILSRFRQKTHRLNAGGKGFNAMFAVSSVDAAKCYYEAFKTQQAGSLHPLKTATIFSFAANEEQNAVGEIVDETFEPEAMDSSAKEFLQAAINDYNACFKTNFGTDSKAFQNYYRDLAKRVKNREVDLLIVVGMFLTGFDAPTLNTLFVDKNLRYHGLMQAFSRTNRIYDATKTFGNIVCFRDLEQATIDAITLFGDKNTKNVVLEKSYEEYMNGYTDSQTGEARRGYLDVAKELHERFPDPDKIETEKDKKDFAKLFGEYLRAENVLQNYDEFAALRELQNVDAADEDAMKAFQEKYYLSDEDVQEMRKVPMPSERAVQDYRSAYNDIRDWLRRQKAGEQKEQSKIDWDDVVFEVDLLKSQEINLDYILQLVFEHHKKIKGKAELVEEIRRIIRASIGHRAKEGLIVDFINDTDLDKVPDVPAILETFYTYAQEVMRHEAAGLIAAEGLNETAAKRYLTGSLKRGYASENGTELTETLPKMSPLNPQYLTKKQSVFQKIAAFVEKFAGIGADI | failed
MNLHTKTWVQRLPVPIDVAWDFFSQPGNLARITPPEMMLKAEGGNAGTAIYEGMKLNFVLYPFMMIPVRWTTEIMKVSKPDFFEDRQLSGPYEQWYHRHLFRDIEGGTEMTDIVEYALPFDLFGEVVEALIVGPRLDEVFEYRRCRVAEILGLEHHHHHH | failed
MNLIWFLIIGGLAGWLAGLIMKGKGFGVLANIGIGIVGSFIGGFLFGLLQLSAHGAIGRLVTATVGAVLLLAIVNKIKKG | failed
MNLNDYKGILVFAEQRDGILQNVGLELLGKATELAYEINKQIALKDAGDELADFAGKKEAAIKSVDVAAATLEEDDQELKNKVADIKKNNPDAAKVTALLVGHNIKNLAQDLIKAGADKVLVVDKPELEVYDTEAYAQVLTATINDQKPEIVLFGATTLGRDLAPRVSSRIATGLTADCTKLELLKDKERQLGMTRPAFGGNLMATIVSPDHRPQMATVRPGVMKKLPKSDDRTGEVVEFPVTLDTSKMKVKLLKVVKEGGNKVDISEAKILVSGGRGVGSKQNFELLEDLATEIGGIVSSSRAQVDAGNMPHDRQVGQTGKTVRPEVYFACGISGAIQHVAGMEESEFIIAINKDRFAPIFSVADLGIVGDLHKILPILTEEIKKYKATK | failed
MNLNIRIKNYWEGEAQGYSEAIEDELNGFERKAWSDLVLEYAPSKDRLDILDIGTGPGFFPIVLSQGGHNVTGIDLTENMIEFARLNLAREGASAKLVTMDCQNLKFPDNCFDLLVCRNLTWTLDDPAKAYKEWHRVLKPGGRVLIFDACWYLHLFDENMKIAYEKKEKEILMKYGHPMHQHKDQVEGDALSRKLFMSDKVRPQWDLDIMLKLGFSKVFADTSVGERILNEQQQDRNSMHPPFLVGGEK | failed
MNLPCQWPRSQQADKHGRFPINRDQRRAAGAGTRSGAGGQPPLGLDQYVQQALQLHQAGRRQEAESIYRQVLARQPKHAAAAHFLGLLLHQTGRSEEGLDLIERSVSLQPTNADFLNNFGTVMRDLGRVAAAIDFFRGAVDLRPEQLAARDNLGSSLKQLGRFEEAEDIYRGTVARNPFHVRARIGLAETLQEAGRLDEALAVFRESLTIRPKDADLLHGLGVGMMEKGKLDEAADLFRQALAVNPGMATAWLMLTQVKRQKERDAELAGMEAQHAKAPQDSLARMQLSFGLGKANDDLKDYNRAFDYFAEGNAIRRKGIDYDPVRTREEFAAMKTVFDAGFFERHRPSPISDDAPIFVVGMPRSGTTLVEQIIASHPQVYGAGELSILKKAVGKQFPTTMPGGFPWGVADTDDADFAEAGQAYLDMLHARYPHLSHVTDKMPGNFLLVGFIHMMMPKAKIIHCTRDAAATCLSIYKVHFRGDSHRYGYDLGELADFHNLYTDIMAHWHKVLPGVVHDVRYEDFVADQEGQSRALIDYLGLPWDDAVLSFHATDRPVRTASAAQVRQPMYQGSVDLWKRYGDRLKPLLDKLD | failed
MNLPILPTISTSFIVISAILIAIGWRQIWKRKIESHKKVMLAAAFFALAFFIIYASRTIFIGNTAFGGPDSIKIYYTIFLIFHINLATIGGILGLVQIITAFKDKFKVHRFVGPIASIVWFCTAITGVAVYLLLYVLYPGGETTSLLKATFGL | failed
MNLRLTASILGKLLMLFSFSFILPLIAAHVFEEPYHPFLIPAALSLLVGAVLGYGIKTESEFDSLRHKESFAIVALIWLFMSIFGSIPYIIFGISPVDAFFESMSGFTTTGASVLTPEELPKSLLLWRSLTQWIGGMGIIVLFLAIFPNVAKRSTVLFQAEYPGVSLSKLKPRIRDTALSLYKVYLLLTIAEVALLYALGLSLFDAINHTFTTLSTGGYSTHSESIAFFKDVRVEAVVAFFAFLGGANFALIYFLLSGKPVIFRNTEFRAYVCFLALASVVIAAVNLDRYSIFESLRYSIFQAVSIMTTTGFTTADFDAWSDSAKLILVVLMFIGGSSGSTGGGIKVIRIYLLIKYAVHQILRAAEPRTVRAVKFEGRAIKKEILDDIAAFFVLYILIFAVSSILVSLSGYDIVTSISATAATLGNVGPGLGLAGAAENYASFPSLTKILLAVNMWIGRLEIFTVVSLFIPTFWRERW | failed
MNLTKRITAWFLTLVMVLGLIPQTMFAQEIATSPLQYEATQEMNEDKTEATISIKFTETETIQLEKVTLSDGTEKVEDLSEVTYTVSENGKYDFKVNYVMEGTPQEETISVEVSGLEEKIKELVTNQNIELDVDIQLKGATYFDGHPNPFFGGTKQYMISDRSIIPYNGMQLMELIVEIPYQEGLEIQGITPSAASQYPDLSKVEKDDKNKKWTYSFYFYKNGTYEFTIDYILNGENKITSTSFTVDGLVSIKDIAMRRHLINEYGEFSGFRYQDGQYVTQDILAKEPSVGFFTFGLDGDNGTTAEYTTSLDGLQYLKNATGLYLYDCKKLAEGETIEPVTEGYYPNMKLFRVSNLNERPNMPKSAYNAELVTKSIANMPALTELVINGTGFSDCTVFRKITAGSLDYLQAMANNIVSLDGIESQQNLSSINIGQNKIKSIDPLSKLNQINFLNLMRNEVFDLRPINESLNQKAVAGNTVYGFAAREQNITYDRTVITPLQNGMYTVELPMPIDIDGSLTNTSSVSLKFANGTTKTYSTSQSEGKTYISIPEGDVDSSQENPFEGAEFKFSFNNNNGADPRTKAWFTGTVTFKASPIATNYHVIYDFISGTRGKSLPPEITNLLPIDSTKYYEGDTITAKNPTQLELEVSDGVWTFEGYDADSKTANANSANEDGNIQFTGTWIFETKKYDVSYKFESINTDKEVPKEILDMLPTVGSVEHGKTVNAPETEYKDVKVTDGVWSFKGWTPVKYENVTGNVEFVGKWEFKKNASIINHIPTISASDKTLTVGDTFDPLKDVTARDKEDGDLTKEIEILKNEVNTSKARVYEVTYKVTDSKGASSIKTIYVTVNPKMEELNRIPTISASDKTLTVGDTFDPLKDVTATDKEDGDLTKEIEILKNEVNTSEAGVYEVTYKVTDSKGASSIKTIYVTVNPKMEELNRIPTISASDKTLTVGDTFDSLKDVTATDKEDGDLTKEIEILKNEVNTSKAGVYEVTYKVTDSKGASSIKTIKVTVIEKNIPIIPNEPDKPSKPDTNKPEDNGSVGTGDKTNGVFWTMLSIICGISVIGVYRKKREINQ | failed
MNMDFNLFMNDIVRQARQEITAAGYTELKTAEEVDEALTKKGTTLVMVNSVCGCAGGIARPAAYHSVHYDKRPDQLVTVFAGQDKEATARARDYFEGYPPSSPSFAILKDGKIMKMVERHEIEGHEPMAVVAKLQEAFEEYCEEV | not failed
MNMDISKAAIVTGGSRGIGRAIAARLAADGFAVVVNYAGNGAKAHETVAAIESAGGKAIAIQGDVGKPQDVANLFAQARAAFGRIDVVVNSAGVMPMASIDVANLDAFDQVIATNLRGAFLVLAQAAANLGDDGRIIALSTSVIAKSLPGYGPYIASKAGVEGLVHVLANELRGRNITVNAIAPGPVGTDLFFNGKSEEAVASIARQAPMERIGMPDEIAAAVSFLAGPDGRWVNAQVLRVNGGFA | failed
MNMGKKIQEMAVWLEFLVGSGLAIFFHLVLHYEQAAYVIFGIGILLALGTYLIREEIEKNRSHLVEQYQQAHEIPFAMAGIADPECLAKAHELIAGTRRTITILQQGYIPLDENEFYLEGAKLSDQAVREIRAVDPLMAGWWTRGALVNFYQANLRALDRGVRIRRIFVVNREELGEPEVQKVLLSHYRDDIDIRIVYRDELPAAGEIIGRDTNSSFDFALYDDRVATDVFAHPGKYYGRKTAQPMEVAKYRHLYELIEHSAHTVSEDGDRIVPSAEVMPLAS | failed
MNMIEPAPVRKSVTVRTSPQQAFDVFVSGMGTWWIKGHSLTQSGQKTVVVEAVAGGRWYEIGNAGEECEWGRVIACDRPNRVLFDWQLNADFDYDPGLHTEVEVLFEANGEGGTTVILEHRHLEKYGVKAKEMRGIFDSENGWGGLLASYMEKAAA | failed
MNMNKTYIPKLDDLLGGGVKEGASIMFSASPGVDYEAFGYQMLNGRLDEGTRGFIFTNVEEPESIIYEFRSYGWDIESHIENGNLFFVDGSSPFLGMPSDQRYTVNDYSEIKDVVLNAINDIPGGVGIINNLSVIIDYLGNGDTLEIVEAWNRRASELDVNLVYLFTEWDYEPELIDKLRESMDCVVNLRTIEERVIIGQGFMVANSAWSEPPSTMVLFFVVQPGGVKVYVPKILVTGPYNSGKSSFVRAIATKSVSVDRKALSAFPTTIAMDIGHLEYKGFMADIFGTPGQERFDMILDVLSREAVGAFILLDSTAPETFARAKEMIRKTRAEAIPKVVVANKQDLPGALSPEEIREMMKLGADVPIVPASVTEGWGVRDALDTLLGLLYGGLEHHHHHH | failed
MNNEAVFSARLSSTQHVGLCRLCNSPLVHTFVDLGMSPPCESFVAADAANDVEPFYPLHAFVCDECFLVQLQEYVAPENIFTEYAYFSSFSDSWVAHAKRYCDMVIERFALGQSSFVVELASNDGYLLQHFLTSNIPMLGIEPAVNVAKVAIGKGIPTLTEFFNEALATDMAARGQKADLIIGNNVLAQVPDINDFVAGMKTLLKPEGVITLEFPHIEKLIAENQFDTIYHEHFSYFSLLTIEKMARRHGLKVFDVEEIPTHGGSLRVFFSHEDIRFPREARVDSLLARELNAGLDKIETYTAFAEAVRQTKRNLLSFLIRLKEMRKSICAYGAPGKGNTLLNYCGIGTDFIDFAVDRNPYKHGRLTPGMHIPIRPVSEIPHMKPDYVLILPWNLKNEIVAQMKDIRNWGGKFIVPIPDISIIDPKELVQ | failed
MNNKFKDFFGFGDNDSYEERDAYEEHYDEQEEMQNSNRPTNSRDSNVVSIKAGQAGSGPSKIVLYEPRVYSDAKEVAQNLLNQRAIIINFSRMDDASARRVVDFITGTVYALNGEIQRIGDKIFLATPPKFETDGKITELLDKKDTLG | failed
MNNKTNWVIIGRFGRPHGIKGFVTVHSFTDPADNILRYNDWHVFLNKQWQPLKLLTIEVRSKAIIAQIEGYPKRELVSALTNLDIGVQESQLAALAPGEYYWYQLIGMSVINSKGDLFGKVVEIMPTGSNDVLVVEGEKRHLIPYLPGQFVINVDESQQVITVDWDMNF | failed
